Target: SNAP-25 Reporter 1 (human) (UniProt P60880)
Test: cell-based or functional assay

Chain of UniProt P60880 (P60880 other isoform, or with tags, fused parts or gaps limits assumed): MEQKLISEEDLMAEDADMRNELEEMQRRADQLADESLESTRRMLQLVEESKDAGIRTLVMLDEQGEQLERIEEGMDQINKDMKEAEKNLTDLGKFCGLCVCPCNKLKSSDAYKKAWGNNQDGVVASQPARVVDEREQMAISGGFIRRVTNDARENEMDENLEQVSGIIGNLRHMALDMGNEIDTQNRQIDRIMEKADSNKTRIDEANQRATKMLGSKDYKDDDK

Substance: Galderma BoNT/A drug product QM-1114 (from UniProt P0DPI0 2-1296) (enzyme)
- EC50 of SNAP-25 cleavage (Western blot), 4 hours at ambient temperature: 844 U/ml
- EC50 of SNAP-25 cleavage (Western blot), 22 hours at 37° C.: 687 U/ml
- EC50 of SNAP-25 cleavage (Western blot), 22 hours at room temperature: 204 U/ml
- EC50 of uncleaved product in RLU (sandwich ELISA), 22 hours at 37° C.: 112 U/ml
- EC50 of uncleaved product in RLU (sandwich ELISA), 22 hours at room temperature: 55.3 U/ml

From patent US20210373021A1
